Laboratory results taken from PMC9812531 (Nature structural & molecular biology, 2021).
Read-outs that look alike come from different tables or passages of the source.

Columns and labels:
Assay in all cases: cryo-EM structure
human SPTLC2 = biological target: T1, human SPTLC2 (human, UniProt O15270 1-562, pyridoxal 5'-phosphate (PLP) in aldimine linkage to Lys379)
T1 sequence (looked up): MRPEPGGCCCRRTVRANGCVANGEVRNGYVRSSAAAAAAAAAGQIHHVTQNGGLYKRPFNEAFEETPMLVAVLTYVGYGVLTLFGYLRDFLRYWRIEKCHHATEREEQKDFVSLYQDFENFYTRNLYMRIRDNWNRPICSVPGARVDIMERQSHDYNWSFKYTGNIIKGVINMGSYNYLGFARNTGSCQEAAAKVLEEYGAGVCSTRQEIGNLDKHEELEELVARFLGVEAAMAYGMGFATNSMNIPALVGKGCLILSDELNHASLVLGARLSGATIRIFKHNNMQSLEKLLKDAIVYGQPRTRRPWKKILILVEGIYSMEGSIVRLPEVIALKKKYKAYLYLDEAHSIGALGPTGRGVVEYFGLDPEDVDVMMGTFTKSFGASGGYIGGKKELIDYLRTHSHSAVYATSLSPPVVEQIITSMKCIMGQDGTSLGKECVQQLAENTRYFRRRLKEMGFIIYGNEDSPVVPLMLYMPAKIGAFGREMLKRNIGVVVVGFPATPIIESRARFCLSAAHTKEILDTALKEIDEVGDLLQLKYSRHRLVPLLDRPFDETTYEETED

cryo-EM structure [1] = biological target: the molecule itself
cryo-EM structure [2] = biological target: the molecule itself; remark: listed apart in the source

B1: human SPTLC1 (natural protein)
chain: MATATEQWVLVEMVQALYEAPAYHLILEGILILWIIRLLFSKTYKLQERSDLTVKEKEELIEEWQPEPLVPPVPKDHPALNYNIVSGPPSHKTVVNGKECINFASFNFLGLLDNPRVKAAALASLKKYGVGTCGPRGFYGTFDVHLDLEDRLAKFMKTEEAIIYSYGFATIASAIPAYSKRGDIVFVDRAACFAIQKGLQASRSDIKLFKHNDMADLERLLKEQEIEDQKNPRKARVTRRFIVVEGLYMNTGTICPLPELVKLKYKYKARIFLEESLSFGVLGEHGRGVTEHYGINIDDIDLISANMENALASIGGFCCGRSFVIDHQRLSGQGYCFSASLPPLLAAAAIEALNIMEENPGIFAVLKEKCGQIHKALQGISGLKVVGESLSPAFHLQLEESTGSREQDVRLLQEIVDQCMNRSIALTQARYLEKEEKCLPPPSIRVVVTVEQTEEELERAASTIKEVAQAVLL
- stoichiometry N (human SPTLC2): 1
- binding result (cryo-EM structure [1]): binds

B2: human SPT complex (SPTLC1-SPTLC2-ssSPTa), one protomer (complex)
chain 1: B1 chain
chain 2: T1 sequence (looked up)
chain 3: MAGMALARAWKQMSWFYYQYLLVTALYMLEPWERTVFNSMLVSIVGMALYTGYVFMPQHIMAILHYFEIVQ
modifications: pyridoxal 5'-phosphate (PLP) in aldimine linkage to Lys379
- stoichiometry N (cryo-EM structure [2]): 2

B3: human SPT-ORMDL3 complex (SPTLC1-SPTLC2-ssSPTa-ORMDL3), one protomer (complex)
chain 1: B1 chain
chain 2: T1 sequence (looked up)
chain 3: B2 chain 3
chain 4: MNVGTAHSEVNPNTRVMNSRGIWLSYVLAIGLLHIVLLSIPFVSVPVVWTLTNLIHNMGMYIFLHTVKGTPFETPDQGKARLLTHWEQMDYGVQFTASRKFLTITPIVLYFLTSFYTKYDQIHFVLNTVSLMSVLIPKLPQLHGVRIFGINKY
modifications: pyridoxal 5'-phosphate (PLP) in aldimine linkage to Lys379
- stoichiometry N (cryo-EM structure [1]): 2

B4: human ssSPTa (natural protein)
chain: B2 chain 3
- stoichiometry N (human SPTLC2): 1
